From US20090130105A1

Columns and labels:
[1] = biological target: human IGF-1R(1-903)-Fc (human) (UniProt P08069); experiment: ELISA, blocking of 320 nM IGF-1 His on biotinylated hIGF-1R-Fc
[2] = biological target: human IGF-1R(1-903)-Fc (human) (UniProt P08069); experiment: ELISA on hIGF-1R-Fc; competitor Zenon-labeled αIR3; +++++ = 90-100%
[3] = biological target: human IGF-1R(1-903)-Fc (human) (UniProt P08069); experiment: ELISA on hIGF-1R-Fc; competitor biotinylated M14-G11; +++++ = 90-100%

human IGF-1R(1-903)-Fc (human), sequence (P08069 31-933): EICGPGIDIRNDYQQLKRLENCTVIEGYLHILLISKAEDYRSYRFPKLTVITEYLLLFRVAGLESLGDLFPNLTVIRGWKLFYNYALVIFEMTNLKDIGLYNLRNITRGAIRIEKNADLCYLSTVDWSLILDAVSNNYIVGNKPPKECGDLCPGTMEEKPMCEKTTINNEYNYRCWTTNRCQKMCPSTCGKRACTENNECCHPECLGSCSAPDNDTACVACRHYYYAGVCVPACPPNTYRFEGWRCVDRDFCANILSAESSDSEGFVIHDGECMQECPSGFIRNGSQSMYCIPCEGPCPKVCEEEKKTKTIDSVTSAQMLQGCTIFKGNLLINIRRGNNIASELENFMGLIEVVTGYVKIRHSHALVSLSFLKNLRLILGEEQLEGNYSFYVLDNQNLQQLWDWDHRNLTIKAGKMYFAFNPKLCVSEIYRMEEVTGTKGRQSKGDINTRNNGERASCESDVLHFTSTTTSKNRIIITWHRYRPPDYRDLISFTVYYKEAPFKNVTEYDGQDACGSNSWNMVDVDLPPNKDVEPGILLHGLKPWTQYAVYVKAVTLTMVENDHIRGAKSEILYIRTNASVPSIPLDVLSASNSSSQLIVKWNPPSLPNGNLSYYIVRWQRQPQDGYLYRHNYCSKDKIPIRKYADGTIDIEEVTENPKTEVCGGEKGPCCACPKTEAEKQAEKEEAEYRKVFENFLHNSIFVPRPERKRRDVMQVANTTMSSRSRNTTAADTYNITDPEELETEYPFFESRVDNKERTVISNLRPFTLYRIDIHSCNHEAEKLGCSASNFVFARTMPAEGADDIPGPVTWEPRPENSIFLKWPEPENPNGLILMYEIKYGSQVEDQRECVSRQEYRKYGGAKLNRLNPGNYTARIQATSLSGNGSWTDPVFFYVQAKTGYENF

% IGF-1 (at 320 nM) bound to IGF-1R at saturating antibody concentrations [1]: 23% | IC50 [1]: 4.9 nM | percent competition [2]: 90 to 100% | percent competition [3]: 90 to 100%
Substance: αIR3 antibody
